The record followed here is the DeepSol protein solubility set.

This data set is described as follows: soluble on expression in E. coli; label from the status in PepcDB or PDB records.
With “MSSVVVVGTQWGDEGKGKITDFLSEHAEVVARYQGGNNAGHTIVFGGVKYKLHLIPSGIFYKEKICVIGNGLVVDPKALLEELKYLHDRGVSTDNLRVSNRAHVILPYHLKQDELEEASKGDNKIGTTKKGIGPAYMDKAARIGIRMADLLDREAFKEKLEQNLAQKNRLFEKMYDTEGFSVDEIFEEYFEYGQQIAQYVCDTSVVLNDALDNNHRVLFEGAQGVMLDIDHGTYPFVTSSNPIAGGVTVGTGVGPAKVTRVVGVCKAYTSRVGDGPFPTELHDEIGHQIREVGREYGTTTGRPRRVGWFDSVVVRHARRVSGLTDLSLNSIDVLTGIPTLKICVAYKCDGKVIDEVPANLNILAKCEPVYEELPGWTEDITGVRSLDELPENARKYVERVSELTGIQLSMFSVGPDRNQTNIVRNVYEA”, the “soluble on expression in E. coli” value is reported as “not soluble”.

In the case of “MKKLVTATTLTAGIGAAIVGLDHGNEADAAEQTQPTNQSTTQSTSGSSANLYTAGQCTWYVYDKVGGNIGSTWGNANNWASAASSAGYTVNNSPEAGSILQSTAGGYGHVAYVENVNSDGSVEVSEMNYNGGPFSVSERTISAGEASSYNYIHLNLEHHHHHH”, the “soluble on expression in E. coli” value is recorded as “soluble”.

Regarding “MGKDLRGKELGVGLYQRKDKRYSARYTNQYGKRMEFYDFKLSVVKKWLNDARYEDEHGLSGTGEKVTVTEWFEKWIKLYKEGVVKDNTVKNYKSRFENNIKPAIGNLQLNKVKKIQLQTILNNMYEEGYAFGTMVLAQITIHALFDGAVQSEILAKNPANGLKCKQRDVKDSRVLTREEQKVFLEYSRGTMYYNAYALLLQTGLRPGEVGGLKWEDIDFDKRELHITRTLLQDKAKGGFYFGSPKNKKSIRTVPLTDTAIQLLKDQRICNFKLRQRSDNWQKNKEFDNLIFCTINGNPVGQSTFRMMMLRVITRINNDRRAEAEINNTTYVEFEPAHPHTLRHTFATRCIEDGMKPNVLQKILGHASITVTMDLYVHETHEEKHKEIRKLGNVEEIGVKLA”, the “soluble on expression in E. coli” value is reported as “not soluble”.

On to “MGSDKIHHHHHHMRVIDGGVTAPKGFKANGYKEGKFGVAIIISEKDAVGAGTFTTNKVVAHPVVLSRELIKNRDKFRAIVANSGNANCFTKDGMEDAKEMQRLVAELFNINEDEVLVASTGVIGRKMDMNIIKDRINKVYNLIKEGNSSINAAKAIMTTDTKPKEIAVEFEVNGKTVRVGGIAKGAGMIAPNMLHATMLCFITTDIEIDKESLTNILQKVVDKTFNNISVDGDTSTNDTVFVLANGLSGVNYEECGEEFENALLYVCRELAKMIVKDGEGATKFMEVVVKGAKTEEDAVKASKAIVNSLLVKTAVFGGDPNWGRIVAAVGYSGADFNPEVVDVILSNYKDEVYLVKDGIPLADEGTEELKKAEEIMKSDEIKIVVDLKMGEFENVCYGCDLSYEYVRINAEYTT”, for which the “soluble on expression in E. coli” value is listed as “not soluble”.

With “MSLAAGVLPQNEQPYSTLVNNSECVANMKGNLERPTPKYTKVGERLRHVIPGHMACSMACGGRACKYENPARWSEQEQAIKGVYSSWVTDNILAMARPSSELLEKYHIIDQFLSHGIKTIINLQRPGEHASCGNPLEQESGFTYLPEAFMEAGIYFYNFGWKDYGVASLTTILDMVKVMTFALQEGKVAIHCHAGLGRTGVLIACYLVFATRMTADQAIIFVRAKRPNSIQTRGQLLCVREFTQFLTPLRNIFSCCDPKAHAVTLPQYLIRQRHLLHGYEARLLKHVPKIIHLVCKLLLDLAEEGHHHHHH”, the “soluble on expression in E. coli” value is on record as “not soluble”.

Take “QSQGVLSSFPAPQAVQDNPAMPTSSGSEGNVKLCSLEEAQRIWKQKSAEIYPIMDKSSRTRLALIICNEEFDSIPRRTGAEVDITGMTMLLQNLGYSVDVKKNLTASDMTTELEAFAHRPEHKTSDSTFLVFMSHGIREGICGKKHSEQVPDILQLNAIFNMLNTKNCPSLKDKPKVIIIQAARGDSPGVVWFKDSVGVSGNLSLPTTEEFEDDAIKKAHIEKDFIAFCSSTPDNVSWRHPTMGSVFIGRLIEHMQEYACSCDVEEIFRKVRFSFEQPDGRAQMPTTERVTLTRCFYLFPGH”: the “soluble on expression in E. coli” value is “soluble”.

On to “MSLIYFETERLIARDYLTNDYLPFSQMNADEQVMKYFPARLTQNESNAFLDRIQEELKSLGYGLFAIEVKSTGEFIGFTGFHEATFEATFTPCTEIGWRLKHSAWNQGYATEAALGALALAEEINTINEIYSFTAALNKPSENVMKKIHLTKIATFEHPALVNGDPLKPHVLYKKAEGHHHHHH”, for which the “soluble on expression in E. coli” value was “soluble”.

As to “MLSKISESLANLSGAERKVAECALAEPKWFVHAAVAEIAERASVSQPTVIRFCRSLGYKGLPEFKLALSASIGHEGMPYVHEELNADDDMASVVEKVLGNAAASLLGERRFLKESELENAIATLMHARRVEFYGVGNSGIVAQDAQHKFFRFGMSTVAYVDTHTQLMAASVLSDQDVLVAISNTGSSIELLDAVSIAKENGASVIALTRNDSPLAQLADCVLSVATQENAELYTPMVSRLLQLAVIDILAIGLALRLGDAASLQLQKSKKSIHNKHIDYDKD”, the “soluble on expression in E. coli” value was “soluble”.

In the case of “MGSDKIHHHHHHMKPSIYSLTRNDLIAWTIEHGEKKFRATQIWDWLYRKRVQSFEEMTNLSKDFIALLNENFLVNPLKQRIVQESADGTVKYLFELPDGMLIETVLMRQHYGLSVCVTTQVGCNIGCTFCASGLIKKQRDLNNGEITAQIMLVQKYFDERGQGERISHVVVMGIGEPFDNYDNVLKFLRTINDDNGLAIGARHITVSTSGLAHKIRDFANEGVQVNLAVSLHAPNNELRSSIMRINRSFPLEKLFAAIEYYIETTNRRVTFEYIMLNGVNDSPENAQELADLTKKIRKLSYVNLIPYNPVTEHDQYSRSPKERVDAFYDVLKKNGVNCVVRQEHGTDIDAACGQLRSNTMKRDREKATAGTAQ”, the “soluble on expression in E. coli” value was “not soluble”.

With “GPGMATEEMKKLATVMAIGTANPPNCYYQADFPDFYFRVTNSDHLINLKQKFKRLCENSRIEKRYLHVTEEILKENPNIAAYEATSLNVRHKMQVKGVAELGKEAALKAIKEWGQPKSKITHLIVCCLAGVDMPGADYQLTKLLDLDPSVKRFMFYHLGCYAGGTVLRLAKDIAENNKGARVLIVCSEMTTTCFRGPSETHLDSMIGQALFGDGAAAVIVGADPDLTVERPIFELVSTAQTIVPESHGAIEGHLLESGLSFHLYKTVPTLISNNIKTCLSDAFTPLNISDWNSLFWIAHPGGPAILDQVTAKVGLEKEKLKVTRQVLKDYGNMSSATVFFIMDEMRKKSLENGQATTGEGLEWGVLFGFGPGITVETVVLRSVPVIS”, the “soluble on expression in E. coli” value is “soluble”.

In the case of “MNEVLRQEKKYLISLEDYYLLSKKFSQVMTLDSHSSDDGYTIRSLYFDSLEDVDWQEKEDGVEIRRKIRLRNYGSQSNFAKLEMKQKQGANQKKRSLKLSKTDAQALINGNNSVLLNYPDTFAAECYSRITTQLYQPKTVIEYQRKAFVAKENNIRITFDHHIIGTEASYDIFSEDLNQNYLLDPYLVILEVKYNGFLLSYIKELLDSVDRSELSASKYCLGRAVSKHYRFLEHHHHHH”, the “soluble on expression in E. coli” value was “not soluble”.

As for “GSPPAQLSVHTVSWNSGHERAPTNLEELLGLNSGETPDVIAVAVQGFGFQTDKPQQGPACVKNFQSLLTSKGYTKLKNTITETMGLTVYCLEKHLDQNTLKNETIIVTVDDQKKSGGIVTSFTIYNKRFSFTTSRMSDEDVTSTNTKYAYDTRLDYSKKDDPSDFLFWIGDLNVRVETNATHAKSLVDQNNIDGLMAFDQLKKAKEQKLFDGWTEPQVTFKPTYKFKPNTDEYDLSATPSWTDRALYKSGTGKTIQPLSYNSLTNYKQTEHRPVLAKFRVTL”, the “soluble on expression in E. coli” value is listed as “soluble”.

Take “MTAEILVVGSILPSDKFFCFLMGPAPVFPNSRKPATLDANSDEQTLRPYFKTKVEQAEQTVAEKSINVRRLMAQQKELNGKVRLLKEEISHLHEQGSHVGEVCKAMDKKKVLVKNHPDGKYIVDVAASVDISTLAAGTRVALRADNYAIHEVLPSKVDPLVSLMMVEKVPDSTYEMVGGLDTQIKEIKEVIELPVKHPELFDALGIAQPKGVLLYGPPGTGKTLLARAVAHHTECTFIRVSGSELVQKFIGEGARMVRELFVMAREHAPSIIFMDEIDSIGSSRVEGSRGGDSEVQRTMLELLNQLDGFEATKNIKVIMATNRIDILDSALLRPGRIDRKIEFPAPDEKARAQILKIHSRKMNLMRGIRMDKIAEQIPGASGAEVKSVCTEAGMFALRERRIHVTQEDFEMAVGKVMQKDSEKNMSIKKLWK”: the “soluble on expression in E. coli” value is “not soluble”.

On to “GHMTDEDSEANALADPDNPPLSAEQLASAPRMPRIKIIRRALKLTQEEFSARYHIPLGTLRDWEQGRSEPDQPARAYLKIIAVDPEGTAAALRKGATGS”, for which the “soluble on expression in E. coli” value is given as “soluble”.

Turning to “MLYAATRATLKKEFGGGHIKDEVFGTVKEDVSLHGYKKYLLSQSSPAPLTAAEEELRQIKINEVQTDVGVDTKHQTLQGVAFPISREAFQALEKLNNRQLNYVQLEIDIKNEIIILANTTNTELKDLPKRIPKDSARYHFFLYKHSHEGDYLESIVFIYSMPGYTCSIRERMLYSSCKSRLLEIVERQLQMDVIRKIEIDNGDELTADFLYEEVHPKQHAHKQSFAKPKGPAGKRGIRRLIRGPAETEATTD”, the “soluble on expression in E. coli” value is “soluble”.

On to “MGSDKIHHHHHHVKIALDPTPFHHSHTLLEFPRVVADLGYKYMQMTPHADFIPFYNHPKADDELVGQLNKACKDVGIEIASVLPVLRWSGPDEDAREAAVRYWKRVIQITVDLGVSTINTEFSGRPEKAEESERAFYRSMEELLPIIEREGLDLLIDPHPDDFVEEGLAAIRVIRGLNSKNVGLVYVASHSFHMKNAPLDIMRAAGDKLRLVHVADTMNHHASHGLRYITNPPGNPVRVHQHLKIGDGDVNWEEFFGGLQEIGFLDREDTVMVSSVFAEDENAAEVSRYQLVTMNNYIATAR”, for which the “soluble on expression in E. coli” value is “not soluble”.

As for “MPEPRCTAIVNFLNLSHSILISIFSVSVMSNYHHNHNYQHRPRGYERLPGKRLPDRWNIYDNVGRDIDGTRFVPFKTPLDSSFFDGKNMPVELQFGVKTLISLAQQANKQIGLVIDLTNTDRYYKKTEWADHGVKYLKLNCPGHEVNEREDLVQDFINAVKEFVNDKENDGKLIGVHCTHGLNRTGYLICRYMIDVDNYSASDAISMFEYYRGHPMEREHYKKSLYEAERKKKYGKSSGKSSGNSADSTISSEQLHRNNSQ”, the “soluble on expression in E. coli” value is on record as “not soluble”.

“MGSDKIHHHHHHMSQERTDGDLRNTGLSLKHDREWDYELDRIVEAVEERDAEKVGLQFPEGLKRRGPAVADDLREELPDDVTVLLSGQPCYGACDLDTYMMRRTDVFVHFGHSPMKESDKIIYVPLFSNVDVFPIMEQAREEQLADPEDDPDVGLVTTAQHMNKFDEMREWLEERGYTVHTRRGDERLTHEGQVLGCNYASADVDADQMLYVGGGKFHPLGLAMEHPEKHVVIADPVNNVVTVADTEKFMKQRYGAVHRAMDAESWGVIFCTKIGQGRWDQAEEIVENNENAYLITMDEVTPDRLTNFGMDAYVNTGCPRITTDDGPQFKKPMLTPGEYEIAIGEKPLDSLEFDTFHGTW”: the “soluble on expression in E. coli” value is on record as “not soluble”.

Consider “MGSDKIHHHHHHMRKEKLYTGCLLLMALITGSCSEEENPEVRPATKPAEPYTSYYYYSYEAARQLSATDFALAEGQFTPGPTYIKGDTLFVANIQSGAFSLELYDRNKNRHLASLKSWKYKEAEQKFPDKIEAIGISGNRLYLANISSRIDVFDVRTLEFITRIGTGNWGDGINQMVHSHAMAITPDGNIMIRTKKNLLVYREADVTLENYQKVPFYCRSKGDGMDVNNGFHSHQMVQDSTGIVYLADFGQYGNQKIQAIDTTLIEKGDQKILIDTEKTLPLSFNPCGIALHENRMILSAQNGSLFIYDRTKGNWENSFKSVKGYTFKKPEKLLVDQNTLWVSDVNAQKLVEVKIYKNEIREY”, for which the “soluble on expression in E. coli” value is recorded as “not soluble”.

Consider “VPLEHFNVPYEDSFFPAVRVKFQGSTKTLIFHGGYDSCLEEMLPFFSAFENLGYDIIAFEGPGQGMALKNGLKFIHNWERPVSALLDYFNLNEVTILGCSWGGYFCLRAAAFEKRIKAAIVYDIFYCGMDVIGMKNKEMRYELEKLLNNNEKDKINELMYSKMKADIDFNWKISKGMDNTMTYTPYDFLKAIQLHTMDGIEELIDQDVLLLAGEEDQYVPIEAMKLFEDRLVNANITKKIFTKETGGEQHCQVGRIDLAFDEIKKFLVR”, for which the “soluble on expression in E. coli” value is recorded as “not soluble”.
